This is an account of results in patent US20200353078A1 (AstraZeneca / MedImmune, published 2020).

Experiment [1] has as its target T1, Human IL-33 (Axxora/Adipogen AG-40B-0038) (human, UniProt O95760 112-270, limits assumed).
T1 sequence (looked up): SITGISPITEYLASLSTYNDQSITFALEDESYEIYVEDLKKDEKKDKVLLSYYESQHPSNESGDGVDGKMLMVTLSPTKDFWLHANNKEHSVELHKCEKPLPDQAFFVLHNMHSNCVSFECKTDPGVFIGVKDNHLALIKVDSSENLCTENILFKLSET
Nature of the experiment: cell-based or functional assay.

Experiment [2] deals with T2, His10/Avi Human IL33-01 (human).
T2 chain: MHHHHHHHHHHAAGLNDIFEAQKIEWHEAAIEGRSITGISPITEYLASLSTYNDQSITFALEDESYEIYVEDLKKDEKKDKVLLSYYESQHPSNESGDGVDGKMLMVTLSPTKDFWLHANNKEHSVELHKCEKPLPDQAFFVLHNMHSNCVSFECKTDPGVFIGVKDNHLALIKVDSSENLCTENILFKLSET
Description: cell-based or functional assay.

For experiment [3], the target named is T3, Full-length human IL-33 (amino acids 1-270), HEK293-EBNA cell lysate (human, UniProt O95760 1-270).
T3 sequence (looked up): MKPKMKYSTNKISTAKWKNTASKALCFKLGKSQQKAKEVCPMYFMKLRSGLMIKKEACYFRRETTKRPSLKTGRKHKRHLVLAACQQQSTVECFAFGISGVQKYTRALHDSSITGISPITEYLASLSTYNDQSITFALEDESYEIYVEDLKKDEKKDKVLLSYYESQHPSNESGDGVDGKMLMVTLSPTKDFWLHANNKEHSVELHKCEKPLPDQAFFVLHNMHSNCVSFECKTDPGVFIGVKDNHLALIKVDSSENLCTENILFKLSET
Nature of the experiment: cell-based or functional assay.

Experiment [4] deals with T2, His10/Avi Human IL33-01. Nature of the experiment: HTRF epitope competition, IgG titrated; competitor DyLight labelled 33_640117 IgG; 1 hour. Here is the method: (§1) As the epitope competition assay utilising 33_640027 reached its limit of sensitivity, an assay using 33_640117 was used for testing purified scFv samples. The assay was essentially as described for the 33v20064 competition assay with the following modifications: 2.5 nM DyLight labelled 33_640117 was prepared and 2.5 microlitres added to the assay plates. This was followed by the addition of 2.5 microlitres of a solution containing 0.12 nM biotinylated human IL-33-01 combined with 0.75 nM streptavidin cryptate detection (Cisbio International, 610SAKLB) for the human assay or a solution containing 0.24 nM biotinylated cynomolgus IL-33 combined with 1.5 nM streptavidin cryptate detection (Cisbio International, 610SAKLB) for the cynomolgus assay. Fluorescence was read after one hour and overnight incubation.
(§2) The ability of anti-IL-33 antibodies to inhibit the binding of biotinylated His Avi human IL-33 or cynomolgus His Avi IL-33 to the DyLight labelled 33_640117 IgG was assessed in a biochemical HTRF® (Homogeneous Time-Resolved Fluorescence, Cisbio International) competition assays as described above.
Background: In TR-FRET formats the signal depends on donor and acceptor labels being close together.

The target of the next experiment is T4, His10/Avi Cyno IL-33 (cynomolgus monkey).
T4 construct: also called Cynomolgus 10His Avitag IL-33; biotinylated His Avi cynomolgus IL-33
T4 chain: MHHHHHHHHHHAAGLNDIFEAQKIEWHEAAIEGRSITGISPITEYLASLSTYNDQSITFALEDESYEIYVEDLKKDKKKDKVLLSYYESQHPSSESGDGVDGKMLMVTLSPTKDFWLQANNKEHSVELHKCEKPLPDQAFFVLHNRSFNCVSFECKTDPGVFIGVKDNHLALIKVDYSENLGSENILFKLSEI
The experiment is described as above. As for the experimental part: as §1, §2

Experiment [5] has as its target T2, His10/Avi Human IL33-01. Nature of the experiment: HTRF epitope competition, IgG titrated; competitor DyLight labelled 33_640117 IgG; overnight. Here is the method: as §1, §2
The target of experiment [6] is T5, Recombinant human IL-33 (construct not named in the example) (human, UniProt O95760 112-270, limits assumed).
T5 construct: also called Recombinant, enzymatically biotinylated human IL-33 (produced in-house); IL-33 (200 nM)
T5 sequence (looked up): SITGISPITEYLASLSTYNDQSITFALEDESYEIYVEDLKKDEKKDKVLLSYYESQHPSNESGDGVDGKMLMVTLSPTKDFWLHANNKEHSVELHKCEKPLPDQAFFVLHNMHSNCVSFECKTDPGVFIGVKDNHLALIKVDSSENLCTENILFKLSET
Description: SPR Biacore T100, 25 C, biotinylated human IL-33 on streptavidin C1 chip, Fab as analyte. As for the experimental part:
Fab fragments were generated by papain cleavage from full length IgG1 and purified by SEC. […] Streptavidin was covalently immobilised to a C1 chip surface using standard amine coupling techniques at a concentration of […] in 10 mM Sodium acetate pH 4.5. […] Recombinant, enzymatically biotinylated human IL-33 (produced in-house) was titrated onto the streptavidin chip surface at […] in HBS-EP+ buffer to enable ˜30 RUs of Fab binding at saturation (Rmax). This low level of analyte binding ensured minimal mass transport effects.
The IL-33 Fab was serially diluted from 5 nM to 78 pM in HBS-EP+ buffer and flowed over the chip at 50 μl/min, with 3 minutes association and up to 30 minutes dissociation. Multiple buffer only injections were made under the same conditions to allow for double reference subtraction of the final sensorgram sets, which were analysed using the BiaEval software (version 2.0.1). The chip surface was fully regenerated with pulses of 3M MgCl₂.

The target in experiment [7] is T1, Human IL-33 (Axxora/Adipogen …). Description: cell-based or functional assay. The source holds these as a separate data set.
For experiment [8] the target is unchanged. Nature of the experiment: cell-based or functional assay. The source holds these as a separate data set.

Read-outs that look alike come from different tables or passages of the source.

B1: IL330180 IgG (antibody, V domains shown)
VH: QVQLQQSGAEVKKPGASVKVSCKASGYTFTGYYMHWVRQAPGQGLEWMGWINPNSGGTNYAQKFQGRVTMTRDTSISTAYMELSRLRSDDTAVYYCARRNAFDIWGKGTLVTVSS
VL: QPVLTQPPSVSEAPRQRVTISCSGSSSNIGNNAVNWYQQLPGTAPKLLIYRNNQRPSGVPDRFSGSKSGTSASLAISGLRSEDEADYYCAAWDDSLSGWVFGGGTKVNVL
Turning to B1, the “IC50, Mast cell IL-6 production” value in experiment [1] came out at 22 nM.

B2: 33_640237 IgG1 (antibody, V domains shown)
VH: EVQLLESGGGLVQPGGSLRLSCAASGFTFSSYAMSWVRQAPGKGLEWVSGIADDFTSTYYADPVKGRFTISRDNSKNTLYLQMNSLRAEDTAVYYCARDLWMMNYAGGLRYPFGYWGQGTTVTVSS
VL: SYVLTQPPSVSVSPGQTASITCSGERMGDKYAAWYQQKPGQSPVLVIYRDTKRPSGIPERFSGSNSGNTATLTISGTQAIDEADYYCGVLKQDTGVFGGGTKVTVL
notes: IgG1; also called ZZ1M37-E06
One may read the IC50 as the concentration that inhibits the measured activity by half. Low readings indicate greater potency in that assay, high ones weaker potency in that assay. Consider B2, for which the “IC50, Huvec IL-8 assay vs. His Avi IL-33” value in the experiment with His10/Avi Human IL33-01 [2] is 0.056 nM. Besides, in experiment [3], the “IC50, Huvec IL-8 assay vs. full length IL-33 cell lysate” value amounted to 0.091 nM. Further, the half-inhibitory concentration (IC50) in the experiment with His10/Avi Human IL33-01 [4] was 0.1 nM; with His10/Avi Cyno IL-33, 1.8 nM; with His10/Avi Human IL33-01 [5] it was 0.1 nM.

B3: 33_640087-7B Fab (Fab, V domains shown)
VH: EVQLLESGGGLVQPGGSLRLSCAASGFTFSSYAMSWVRQAPGKGLEWVSGISAIDQSTYYADSVKGRFTISRDNSKNTLYLQMNSLRAEDTAVYYCARQKFMQLWGGGLRYPFGYWGQGTMVTVSS
VL: SYVLTQPPSVSVSPGQTASITCSGEGMGDKYAAWYQQKPGQSPVLVIYRDTKRPSGIPERFSGSNSGNTATLTISGTQAMDEADYYCGVIQDNTGVFGGGTKLTVL
notes: Fab made by papain cleavage of full length IgG1
What is called Kd is the concentration at which binding is half-saturated. The term koff denotes the rate constant with which the complex falls apart. A word on the kon: it is the second-order rate constant of association. B3: in experiment [6], the Kd was 0.00043 nM, the koff is 9.42e-06 s⁻¹ and the kon was determined as 2.2e+07 M⁻¹ s⁻¹.

B4: 33_640001 Fab (Fab, V domains shown)
VH: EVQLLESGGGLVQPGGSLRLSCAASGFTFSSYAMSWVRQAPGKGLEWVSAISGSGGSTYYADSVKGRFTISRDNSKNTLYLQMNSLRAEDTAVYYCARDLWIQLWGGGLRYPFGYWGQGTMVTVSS
VL: SYVLTQPPSVSVSPGQTASITCSGERMGDKYAAWYQQKPGQSPVLVIYQDTKRPSGIPERFSGSNSGNTATLTISGTQAMDEADYYCQVWDSSTGVFGGGTKVTVL
notes: as for B3
B4: in experiment [6], the Kd turned out to be 3.34 nM, the koff came to 0.0326 s⁻¹ and the kon came out at 9.76e+06 M⁻¹ s⁻¹.

B5: 33_640050 Fab (Fab, V domains shown)
VH: EVQLLESGGGLVQPGGSLRLSCAASGFTFSSYAMSWVRQAPGKGLEWVSAISGSGGSTYYADSVKGRFTISRDNSKNTLYLQMNSLRAEDTAVYYCPRHKFMQLWGGGLRYPFGYWGQGTMVTVSS
VL: SYVLTQPPSVSVSPGQTASITCSGERMGDKYAAWYQQKPGQSPVLVIYQDTKRPSGIPERFSGSNSGNTATLTISGTQAMDEADYYCQVWDSSTGVFGGGTKVTVL
notes: as for B3
For B5, in experiment [6], the Kd was 0.0034 nM, the koff stood at 0.000105 s⁻¹ and the kon stood at 3.08e+07 M⁻¹ s⁻¹.

B6: IL330377 IgG1 (antibody, V domains shown)
VH: EVQLLESGGGLVQPGGSLRLSCAASGFTFSSYAMSWVRQAPGKGLEWVSASDMLYGSTYYADSVKGRFTISRDNSKNTLYLQMNSLRAEDTAVYYCSQNILGYFDSWGRGTLVTVSS
VL: SYVLTQPPSVSVSPGQTARITCSGDALPKQYAHWYQQKPGQAPALVIYKDTERPSGIPERFSGSSSGTTVTLTISGVQAEDEADYYCQSADSTGYHRVFGGGTKVTVL
Turning to B6, in experiment [7], the “Huvec IL-6 production, maximum inhibition” value was around 70%.

B7: IL330388_fgl IgG1 (antibody, V domains shown)
VH: EVQLLESGGGLVQPGGSLRLSCAASGFTFSSYAMSWVRQAPGKGLEWVSASTPWQGSTYYADSVKGRFTISRDNSKNTLYLQMNSLRAEDTAVYYCVRWYWGWIDSWGRGTLVTVSS
VL: SYELMQPPSVSVSPGQTARITCSGDALPKQYAHWYQQKPGQAPVLVIYKDTERPSGIPERFSGSSSGTTVTLTISGVQAEDEADYYCMSSDPSGASRVFGGGTKLTVL
Regarding B7, in [8], the “IC50, Huvec IL-6 production” value stood at 2.1 nM and the “IC50, Mast cell IL-6 production” value was determined as 1.2 nM.

B8: IL330398 IgG1 (antibody, V domains shown)
VH: EVQLLESGGGLVQPGGSLRLSCAASGFTFSSYAMSWVRQAPGKGLEWVSASTPWQGSTYYADSVKGRFTISRDNSKNTLYLQMNSLRAEDTAVYYCVRWYWGWIDSWGRGTLVTVSS
VL: SYVLTQPPSVSVSPGQTARITCSGDALPKQYAHWYQQKPGQAPALVIYKDTERPSGIPERFSGSSSGTTVTLTISGVQAEDEADYYCLSSDASGASRVFGGGTKVTVL
With B8, the “Huvec IL-6 production, maximum inhibition” value in experiment [7] was around 70%.

B9: IL330398_fgl IgG1 (antibody, V domains shown)
VH: EVQLLESGGGLVQPGGSLRLSCAASGFTFSSYAMSWVRQAPGKGLEWVSASTPWQGSTYYADSVKGRFTISRDNSKNTLYLQMNSLRAEDTAVYYCVRWYWGWIDSWGRGTLVTVSS
VL: SYELMQPPSVSVSPGQTARITCSGDALPKQYAHWYQQKPGQAPVLVIYKDTERPSGIPERFSGSSSGTTVTLTISGVQAEDEADYYCLSSDASGASRVFGGGTKLTVL
Turning to B9, in experiment [8], the “IC50, Huvec IL-6 production” value was determined as 1.5 nM and the “IC50, Mast cell IL-6 production” value worked out at 0.9 nM.

B10: IL330396_fgl IgG1 (antibody, V domains shown)
VH: EVQLLESGGGLVQPGGSLRLSCAASGFTFSSYAMSWVRQAPGKGLEWVSASTPWQGSTYYADSVKGRFTISRDNSKNTLYLQMNSLRAEDTAVYYCVRWYWGWIDSWGRGTLVTVSS
VL: SYELMQPPSVSVSPGQTARITCSGDALPKQYAHWYQQKPGQAPVLVIYKDTERPSGIPERFSGSSSGTTVTLTISGVQAEDEADYYCMSSDDTGASRVFGGGTKLTVL
For the molecule B10, in experiment [8], the “IC50, Huvec IL-6 production” value came to 2.8 nM and the “IC50, Mast cell IL-6 production” value worked out at 1.5 nM.

B11: IL330377_fgl IgG1 (antibody, V domains shown)
VH: EVQLLESGGGLVQPGGSLRLSCAASGFTFSSYAMSWVRQAPGKGLEWVSASDMLYGSTYYADSVKGRFTISRDNSKNTLYLQMNSLRAEDTAVYYCSQNILGYFDSWGRGTLVTVSS
VL: SYELMQPPSVSVSPGQTARITCSGDALPKQYAHWYQQKPGQAPVLVIYKDTERPSGIPERFSGSSSGTTVTLTISGVQAEDEADYYCQSADSTGYHRVFGGGTKLTVL
As to B11, in [8], the “IC50, Huvec IL-6 production” value was determined as 6.6 nM and the “IC50, Mast cell IL-6 production” value was determined as 1.3 nM.

B12: 33_640081 IgG1 (antibody, V domains shown)
VH: EVQLLESGGGSVQPGGSLRLSCAASGFTFSSYAMNWVRQAPGKGLEWVSAISGSGGSTHYADSVKGRFTISRDNSKNTLYLQMNSLRAEDTAVYYCGRAKFMQLWGGGLRYPLGYWGQGTMVTVSS
VL: SYVLTQPPSVSVSPGQTASITCSGERMGDKYAAWYQQKPGQSPVLVIYQDTKRPSGIPERFSGSNSGNTATLTISGTQATDEADYYCQVWAADDTGVFGGGTKVTVL
notes: IgG1; also called ZZ1JMB-H05
Turning to B12, the IC50 with His10/Avi Human IL33-01 [4] came to 0.3 nM; in the experiment with His10/Avi Cyno IL-33, 10 nM; in the experiment with His10/Avi Human IL33-01 [5], 0.6 nM.
